In US6350731:
Where no end group is shown, it is not given here.

Key:
[1] = target: Rb 78; experiment: competitive ELISA on antiserum Rb 78; coated antigen not given
[2] = target: 2 DMB; experiment: CELIA on monoclonal 2 DMB; coated antigen not given
[3] = target: Rb 38; experiment: competitive ELISA on antiserum Rb 38; coated antigen not given
[4] = target: Rb 37; experiment: competitive ELISA on antiserum Rb 37; coated antigen not given
[5] = target: 17 DB-1; experiment: CELIA on monoclonal 17 DB-1; coated antigen not given
[6] = target: Rb 66; experiment: competitive ELISA on antiserum Rb 66; coated antigen not given
[7] = target: Rb 39; experiment: competitive ELISA on antiserum Rb 39; coated antigen not given
[8] = target: Rb 65; experiment: competitive ELISA on antiserum Rb 65; coated antigen not given
[9] = target: Rb 112; experiment: competitive ELISA on antiserum Rb 112; coated antigen not given
[10] = target: 21 DB-1; experiment: CELIA on monoclonal 21 DB-1; coated antigen not given
[11] = target: 19 DB-1; experiment: CELIA on monoclonal 19 DB-1; coated antigen not given
[12] = target: Rb 109; experiment: competitive ELISA on antiserum Rb 109; coated antigen not given
[13] = target: 22 DB-1; experiment: CELIA on monoclonal 22 DB-1; coated antigen not given
[14] = target: 13 DB-1; experiment: CELIA on monoclonal 13 DB-1; coated antigen not given
[15] = target: 4 DMB; experiment: CELIA on monoclonal 4 DMB; coated antigen not given
[16] = target: 9 DB-1; experiment: CELIA on monoclonal 9 DB-1; coated antigen not given
[17] = target: Rb 68; experiment: competitive ELISA on antiserum Rb 68; coated antigen not given
[18] = target: Rb 67; experiment: competitive ELISA on antiserum Rb 67; coated antigen not given
[19] = target: 12 DB-1; experiment: CELIA on monoclonal 12 DB-1; coated antigen not given
[20] = target: 10 DB-1; experiment: CELIA on monoclonal 10 DB-1; coated antigen not given

IC50 [1] [nM]	IC50 [2] [nM]	IC50 [3] [nM]	IC50 [4] [nM]	IC50 [5] [nM]	IC50 [6] [nM]	IC50 [7] [nM]	IC50 [8] [nM]	IC50 [9] [nM]	IC50 [10] [nM]	IC50 [11] [nM]	IC50 [12] [nM]	IC50 [13] [nM]	IC50 [14] [nM]	IC50 [15] [nM]	IC50 [16] [nM]	IC50 [17] [nM]	IC50 [18] [nM]	IC50 [19] [nM]	IC50 [20] [nM]	Binder
100	–	–	–	–	–	–	–	–	–	–	–	–	–	–	–	–	–	–	–	RKIEIVRKKPIFKKATV [GP21a]
–	2000	74	10	3000	< 2	2	3	3	30	18	4	25	400	150	1200	–	–	–	–	Ac-ISRRLIDRTNANFLVWPPC [GP10]
–	–	–	–	–	–	–	–	–	–	–	–	–	–	–	–	< 2	2	–	–	Ac-RKIEIVRKKC [GP8]
–	2000	150	20	180	< 2	2	3	2	18	18	2	20	200	150	1000	–	–	2000	400	Ac-ISRRLIDRTNANFLC (not fully specified; printed as Ac-25I-S-R-R-L-I-D-R-T-N-A-N-F-L38-C) [GP4]
